Experimental data: article PMC4105704 (Cell, 2014)

Assays:
[1] = target: Hermes79-612 C519S (Musca domestica); assay: crystal structure
[2] = target: HermesΔ497-516 (Musca domestica)
[3] = target: full-length Hermes expressed in Sf9 cells (Musca domestica); assay: SEC
[4] = target: full-length Hermes expressed in budding yeast (Musca domestica); assay: SEC
SEC = target: the molecule itself; assay: SEC

Molecule: Hermes79-612 C519S (domain or fragment)
- stoichiometry N [1]: 8

Molecule: HermesΔ497-516 (enzyme)
- stoichiometry N [2]: 2

Molecule: full-length Hermes expressed in Sf9 cells (enzyme)
- stoichiometry N [3]: 8

Molecule: full-length Hermes expressed in budding yeast (enzyme)
- stoichiometry N [4]: 8

B1: full-length Hermes transposase (E. coli-expressed) (enzyme, Musca domestica, UniProt Q25438 1-612, looked up)
chain: MQKMDNLEVKAKINQGLYKITPRHKGTSFIWNVLADIQKEDDTLVEGWVFCRKCEKVLKYTTRQTSNLCRHKCCASLKQSRELKTVSADCKKEAIEKCAQWVVRDCRPFSAVSGSGFIDMIKFFIKVKAEYGEHVNVEELLPSPITLSRKVTSDAKEKKALISREIKSAVEKDGASATIDLWTDNYIKRNFLGVTLHYHENNELRDLILGLKSLDFERSTAENIYKKLKAIFSQFNVEDLSSIKFVTDRGANVVKSLANNIRINCSSHLLSNVLENSFEETPELNMPILACKNIVKYFKKANLQHRLRSSLKSECPTRWNSTYTMLRSILDNWESVIQILSEAGETQRIVHINKSIIQTMVNILDGFERIFKELQTCSSPSLCFVVPSILKVKEICSPDVGDVADIAKLKVNIIKNVRIIWEENLSIWHYTAFFFYPPALHMQQEKVAQIKEFCLSKMEDLELINRMSSFNELSATQLNQSDSNSHNSIDLTSHSKDISTTSFFFPQLTQNNSREPPVCPSDEFEFYRKEIVILSEDFKVMEWWNLNSKKYPKLSKLALSLLSIPASSAASERTFSLAGNIITEKRNRIGQQTVDSLLFLNSFYKNFCKLDI
- stoichiometry N (SEC): 8
